# Positions count from the first letter of the chain named. Numbers in names are those of the source.
# B1: human O-phosphoseryl-tRNASec:selenocysteinyl-tRNASec synthase (SepSecS), wild type (enzyme)
# chain: MNRESFAAGERLVSPAYVRQGCEARRSHEHLIRLLLEKGKCPENGWDESTLELFLHELAIMDSNNFLGNCGVGEREGRVASALVARRHYRFIHGIGRSGDISAVQPKAAGSSLLNKITNSLVLDIIKLAGVHTVANCFVVPMATGMSLTLCFLTLRHKRPKAKYIIWPRIDQKSCFKSMITAGFEPVVIENVLEGDELRTDLKAVEAKVQELGPDCILCIHSTTSCFAPRVPDRLEELAVICANYDIPHIVNNAYGVQSSKCMHLIQQGARVGRIDAFVQSLDKNFMVPVGGAIIAGFNDSFIQEISKMYPGRASASPSLDVLITLLSLGSNGYKKLLKERKEMFSYLSNQIKKLSEAYNERLLHTPHNPISLAMTLKTLDEHRDKAVTQLGSMLFTRQVSGARVVPLGSMQTVSGYTFRGFMSHTNNYPCAYLNAASAIGMKMQDVDLFIKRLDRCLKAVRKERSKESDDNYDKTEDVDIEEMALKLDNVLLDTYQDASS
# notes: human SepSecS (SEPSECS) cloned into pQE80 with an N-terminal His-tag; PLP cofactor covalently attached to Lys284; Band at ~60 kDa on SDS-PAGE; also called WT SepSecS; WT; not shown: His6, N-terminal, kept
# B2: human SepSecS Thr325Ser variant (enzyme)
# chain: B1 chain with T325S
# notes: human SepSecS (SEPSECS) in pQE80 with an N-terminal His-tag, pathogenic variant made by site-directed mutagenesis; Mutation found in patients (PCH2D); also called T325S; T325S70; source: E. coli SoluBL21(DE3), purified from the soluble fraction, S200 SEC (70 min and 55 min peaks); not shown: His6, N-terminal, kept
# B3: human SepSecS Tyr334Cys variant (enzyme)
# chain: B1 chain with Y334C
# notes: human SepSecS (SEPSECS) in pQE80 with an N-terminal His-tag, pathogenic variant made by site-directed mutagenesis; Mutation found in patients (PCH2D); also called Y334C; Y334C70; not shown: His6, N-terminal, kept
# Tests used:
# [1] = target: the molecule itself; experiment: SEC; S200 SEC of the soluble, purified His-tagged SepSecS samples; tetramer peak at ~70 min, 'early' peak at ~55 min; self-association
# [2] = target: the molecule itself; experiment: crystal structure; holo T325S, sitting drop at +12 °C, lithium citrate and PEG 3,350; orthorhombic, half of the tetramer in the asymmetric unit
# [3] = target: the molecule itself; experiment: crystal structure; binary complexes with human tRNASec, sitting drop at +12 °C, sodium cacodylate, lithium citrate, PEG 3,350; trigonal, two SepSecS dimers and one tRNASec in the asymmetric unit
protein,measurement,setting,value
B1,stoichiometry N,[1],4
B2,stoichiometry N,[2],4
B3,stoichiometry N,[3],4

# From article PMC5006159, “Structural basis for early-onset neurological disorders caused by mutations in human selenocysteine synthase” (Scientific Reports, 2016)
